Laboratory results taken from PMC6996891.

Biological target: attachment invasion locus (Ail) protein, wild type (Yersinia pestis)
Test: native gel or EMSA

attachment invasion locus (Ail) protein, wild type (natural protein)
percent oligomers: 20%
